# Reference: publication PMC9482650, “Quantitative fragmentomics allow affinity mapping of interactomes” (Nature Communications, 2022)
# Biological target: T1, APBA1_2, Q02410
# T1 sequence (Q02410 742-832, limits assumed, looked up): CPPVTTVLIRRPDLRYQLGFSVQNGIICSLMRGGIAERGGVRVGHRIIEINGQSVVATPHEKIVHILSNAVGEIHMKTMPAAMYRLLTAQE
# Experiment: holdup assay
# Design: key: below the threshold = too weak to quantify, mostly under pKd 3.1 to 4
# Details: plain residues with an end cap or a label only (N-terminal biotin on a linker: ttds)
row,Binder,pKd
1,"SGSRPSATVV [HPV73-E6, Q82005]",4.02
2,"PVRVCEETSL [OTULIN, Q96BN8]",3.95

# Biological target: T2, APBA2_1, Q99767
# T2 sequence (Q99767 563-664, limits assumed, looked up): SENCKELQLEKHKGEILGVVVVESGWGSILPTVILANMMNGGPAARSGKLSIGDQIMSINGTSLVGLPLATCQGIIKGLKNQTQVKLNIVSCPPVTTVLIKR
# Experiment: holdup assay
# Design: key: below the threshold = too weak to quantify, mostly under pKd 3.1 to 4
# Details: plain residues with an end cap or a label only (N-terminal biotin on a linker: ttds)
row,Binder,pKd
1,"SGSRPSATVV [HPV73-E6, Q82005]",below the threshold
2,"PVRVCEETSL [OTULIN, Q96BN8]",below the threshold

# Biological target: CASK, O14936
# Sequence (O14936 487-570): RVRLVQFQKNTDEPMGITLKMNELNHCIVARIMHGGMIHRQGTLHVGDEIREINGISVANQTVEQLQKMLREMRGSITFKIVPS
# Experiment: holdup assay
# Design: key: below the threshold = too weak to quantify, mostly under pKd 3.1 to 4
# Details: plain residues with an end cap or a label only (N-terminal biotin on a linker: ttds)
row,Binder,pKd
1,"SGSRPSATVV [HPV73-E6, Q82005]",below the threshold
2,"PVRVCEETSL [OTULIN, Q96BN8]",below the threshold

# Biological target: DLG1_3, Q12959
# Sequence (Q12959 457-571): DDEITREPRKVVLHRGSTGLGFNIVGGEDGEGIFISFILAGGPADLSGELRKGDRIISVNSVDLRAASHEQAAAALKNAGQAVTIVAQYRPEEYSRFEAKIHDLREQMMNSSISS
# Experiment: holdup assay
# Design: key: below the threshold = too weak to quantify, mostly under pKd 3.1 to 4
# Details: plain residues with an end cap or a label only (N-terminal biotin on a linker: ttds)
row,Binder,pKd
1,"SGSRPSATVV [HPV73-E6, Q82005]",below the threshold
2,"PVRVCEETSL [OTULIN, Q96BN8]",4.14

# Biological target: T3, DLG3_3, Q92796
# T3 sequence (Q92796 374-475, limits assumed, looked up): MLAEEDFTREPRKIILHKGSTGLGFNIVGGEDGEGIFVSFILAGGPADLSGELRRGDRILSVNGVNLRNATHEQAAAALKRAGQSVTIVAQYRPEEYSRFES
# Experiment: holdup assay
# Design: key: below the threshold = too weak to quantify, mostly under pKd 3.1 to 4
# Details: plain residues with an end cap or a label only (N-terminal biotin on a linker: ttds)
row,Binder,pKd
1,"SGSRPSATVV [HPV73-E6, Q82005]",below the threshold
2,"PVRVCEETSL [OTULIN, Q96BN8]",4.02

# Biological target: DLG4_3, P78352
# Sequence (P78352 306-403): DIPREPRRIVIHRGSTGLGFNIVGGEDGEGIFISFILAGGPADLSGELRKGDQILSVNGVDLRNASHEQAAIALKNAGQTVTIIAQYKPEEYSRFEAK
# Experiment: holdup assay
# Design: key: below the threshold = too weak to quantify, mostly under pKd 3.1 to 4
# Details: plain residues with an end cap or a label only (N-terminal biotin on a linker: ttds)
row,Binder,pKd
1,"SGSRPSATVV [HPV73-E6, Q82005]",below the threshold
2,"PVRVCEETSL [OTULIN, Q96BN8]",3.96

# Biological target: T4, DVL3, Q92997
# T4 sequence (Q92997 244-331, limits assumed, looked up): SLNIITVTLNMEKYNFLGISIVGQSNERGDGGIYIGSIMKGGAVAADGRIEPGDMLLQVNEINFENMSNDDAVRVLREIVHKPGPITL
# Experiment: holdup assay
# Design: key: below the threshold = too weak to quantify, mostly under pKd 3.1 to 4
# Details: plain residues with an end cap or a label only (N-terminal biotin on a linker: ttds)
row,Binder,pKd
1,"SGSRPSATVV [HPV73-E6, Q82005]",3.5
2,"PVRVCEETSL [OTULIN, Q96BN8]",below the threshold

# Biological target: T5, FRMPD1, Q5SYB0
# T5 sequence (Q5SYB0 52-145, limits assumed, looked up): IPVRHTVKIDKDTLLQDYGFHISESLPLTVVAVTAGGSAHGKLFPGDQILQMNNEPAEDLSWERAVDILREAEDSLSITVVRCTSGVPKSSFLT
# Experiment: holdup assay
# Design: key: below the threshold = too weak to quantify, mostly under pKd 3.1 to 4
# Details: plain residues with an end cap or a label only (N-terminal biotin on a linker: ttds)
row,Binder,pKd
1,"SGSRPSATVV [HPV73-E6, Q82005]",below the threshold
2,"PVRVCEETSL [OTULIN, Q96BN8]",below the threshold

# Biological target: FRMPD2_1, Q68DX3
# Sequence (Q68DX3 770-861): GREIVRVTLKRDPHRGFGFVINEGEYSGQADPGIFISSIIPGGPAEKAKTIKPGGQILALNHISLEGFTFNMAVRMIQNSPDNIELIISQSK
# Experiment: holdup assay
# Design: key: below the threshold = too weak to quantify, mostly under pKd 3.1 to 4
# Details: plain residues with an end cap or a label only (N-terminal biotin on a linker: ttds)
row,Binder,pKd
1,"SGSRPSATVV [HPV73-E6, Q82005]",3.51
2,"PVRVCEETSL [OTULIN, Q96BN8]",below the threshold

# Biological target: FRMPD2_2, Q68DX3
# Sequence (Q68DX3 944-1038): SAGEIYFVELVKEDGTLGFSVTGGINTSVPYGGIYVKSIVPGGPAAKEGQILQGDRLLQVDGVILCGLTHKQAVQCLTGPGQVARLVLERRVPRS
# Experiment: holdup assay
# Design: key: below the threshold = too weak to quantify, mostly under pKd 3.1 to 4
# Details: plain residues with an end cap or a label only (N-terminal biotin on a linker: ttds)
row,Binder,pKd
1,"SGSRPSATVV [HPV73-E6, Q82005]",below the threshold
2,"PVRVCEETSL [OTULIN, Q96BN8]",3.51

# Biological target: FRMPD2_3, Q68DX3
# Sequence (Q68DX3 1073-1166): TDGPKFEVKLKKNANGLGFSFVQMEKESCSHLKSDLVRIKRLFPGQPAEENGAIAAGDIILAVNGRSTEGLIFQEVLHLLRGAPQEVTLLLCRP
# Experiment: holdup assay
# Design: key: below the threshold = too weak to quantify, mostly under pKd 3.1 to 4
# Details: plain residues with an end cap or a label only (N-terminal biotin on a linker: ttds)
row,Binder,pKd
1,"SGSRPSATVV [HPV73-E6, Q82005]",below the threshold
2,"PVRVCEETSL [OTULIN, Q96BN8]",below the threshold

# Biological target: GOPC, Q9HD26
# Experiment: holdup assay
# Design: key: below the threshold = too weak to quantify, mostly under pKd 3.1 to 4
# Details: plain residues with an end cap or a label only (N-terminal biotin on a linker: ttds)
row,Binder,pKd
1,"SGSRPSATVV [HPV73-E6, Q82005]",3.59
2,"PVRVCEETSL [OTULIN, Q96BN8]",4.44

# Biological target: GORASP1, Q9BQQ3
# Sequence (Q9BQQ3 1-208): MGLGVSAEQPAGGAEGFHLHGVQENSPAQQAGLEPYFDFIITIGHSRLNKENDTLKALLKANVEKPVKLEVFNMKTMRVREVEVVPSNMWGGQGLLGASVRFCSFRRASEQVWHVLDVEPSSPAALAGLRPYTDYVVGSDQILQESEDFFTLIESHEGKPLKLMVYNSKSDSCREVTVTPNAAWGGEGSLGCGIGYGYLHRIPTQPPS
# Experiment: holdup assay
# Design: key: below the threshold = too weak to quantify, mostly under pKd 3.1 to 4
# Details: plain residues with an end cap or a label only (N-terminal biotin on a linker: ttds)
row,Binder,pKd
1,"SGSRPSATVV [HPV73-E6, Q82005]",4.19
2,"PVRVCEETSL [OTULIN, Q96BN8]",3.64

# Biological target: T6, GRIP1_7, Q9Y3R0
# T6 sequence (Q9Y3R0 999-1096, limits assumed, looked up): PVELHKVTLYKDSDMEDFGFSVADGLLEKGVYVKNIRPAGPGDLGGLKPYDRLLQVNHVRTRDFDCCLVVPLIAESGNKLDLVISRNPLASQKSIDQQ
# Experiment: holdup assay
# Design: key: below the threshold = too weak to quantify, mostly under pKd 3.1 to 4
# Details: plain residues with an end cap or a label only (N-terminal biotin on a linker: ttds)
row,Binder,pKd
1,"SGSRPSATVV [HPV73-E6, Q82005]",3.83
2,"PVRVCEETSL [OTULIN, Q96BN8]",3.75

# Biological target: Inadl_1, Q8NI35
# Sequence (Q8NI35 113-229): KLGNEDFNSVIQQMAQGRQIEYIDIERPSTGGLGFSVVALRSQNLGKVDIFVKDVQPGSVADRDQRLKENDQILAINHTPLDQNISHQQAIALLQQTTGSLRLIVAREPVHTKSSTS
# Experiment: holdup assay
# Design: key: below the threshold = too weak to quantify, mostly under pKd 3.1 to 4
# Details: plain residues with an end cap or a label only (N-terminal biotin on a linker: ttds)
row,Binder,pKd
1,"SGSRPSATVV [HPV73-E6, Q82005]",below the threshold
2,"PVRVCEETSL [OTULIN, Q96BN8]",3.7

# Biological target: Inadl_5, Q8NI35
# Sequence (Q8NI35 673-780): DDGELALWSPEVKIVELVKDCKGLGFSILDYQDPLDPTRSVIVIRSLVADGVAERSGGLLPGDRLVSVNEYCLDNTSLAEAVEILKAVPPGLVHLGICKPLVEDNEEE
# Experiment: holdup assay
# Design: key: below the threshold = too weak to quantify, mostly under pKd 3.1 to 4
# Details: plain residues with an end cap or a label only (N-terminal biotin on a linker: ttds)
row,Binder,pKd
1,"SGSRPSATVV [HPV73-E6, Q82005]",below the threshold
2,"PVRVCEETSL [OTULIN, Q96BN8]",3.54

# Biological target: LAP2, Q96RT1
# Sequence (Q96RT1 other isoform, or with tags, fused parts or gaps): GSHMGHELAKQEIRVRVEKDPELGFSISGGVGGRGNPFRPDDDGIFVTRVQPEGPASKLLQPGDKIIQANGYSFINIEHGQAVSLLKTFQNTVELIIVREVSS
# Experiment: holdup assay
# Design: key: below the threshold = too weak to quantify, mostly under pKd 3.1 to 4
# Details: plain residues with an end cap or a label only (N-terminal biotin on a linker: ttds)
row,Binder,pKd
1,"SGSRPSATVV [HPV73-E6, Q82005]",below the threshold
2,"PVRVCEETSL [OTULIN, Q96BN8]",4.18

# Biological target: T7, LIN7C, Q9NUP9
# T7 sequence (Q9NUP9 88-185, limits assumed, looked up): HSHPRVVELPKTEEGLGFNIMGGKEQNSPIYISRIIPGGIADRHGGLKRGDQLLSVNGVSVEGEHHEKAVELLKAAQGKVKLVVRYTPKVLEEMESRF
# Experiment: holdup assay
# Design: key: below the threshold = too weak to quantify, mostly under pKd 3.1 to 4
# Details: plain residues with an end cap or a label only (N-terminal biotin on a linker: ttds)
row,Binder,pKd
1,"SGSRPSATVV [HPV73-E6, Q82005]",3.81
2,"PVRVCEETSL [OTULIN, Q96BN8]",4.06

# Biological target: LNX1_3, Q8TBB1
# Sequence (Q8TBB1 500-596): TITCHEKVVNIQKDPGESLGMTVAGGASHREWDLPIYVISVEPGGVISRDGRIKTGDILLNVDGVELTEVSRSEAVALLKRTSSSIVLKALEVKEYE
# Experiment: holdup assay
# Design: key: below the threshold = too weak to quantify, mostly under pKd 3.1 to 4
# Details: plain residues with an end cap or a label only (N-terminal biotin on a linker: ttds)
row,Binder,pKd
1,"SGSRPSATVV [HPV73-E6, Q82005]",below the threshold
2,"PVRVCEETSL [OTULIN, Q96BN8]",below the threshold

# Biological target: MAGI2_4, Q86UL8
# Sequence (Q86UL8 772-865): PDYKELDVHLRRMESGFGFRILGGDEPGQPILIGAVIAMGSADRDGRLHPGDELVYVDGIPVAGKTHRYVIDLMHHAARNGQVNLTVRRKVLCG
# Experiment: holdup assay
# Design: key: below the threshold = too weak to quantify, mostly under pKd 3.1 to 4
# Details: plain residues with an end cap or a label only (N-terminal biotin on a linker: ttds)
row,Binder,pKd
1,"SGSRPSATVV [HPV73-E6, Q82005]",4.49
2,"PVRVCEETSL [OTULIN, Q96BN8]",below the threshold

# Biological target: MAGI2_6, Q86UL8
# Sequence (Q86UL8 1141-1229): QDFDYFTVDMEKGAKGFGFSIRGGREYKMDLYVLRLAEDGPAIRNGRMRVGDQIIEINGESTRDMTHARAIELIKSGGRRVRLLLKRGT
# Experiment: holdup assay
# Design: key: below the threshold = too weak to quantify, mostly under pKd 3.1 to 4
# Details: plain residues with an end cap or a label only (N-terminal biotin on a linker: ttds)
row,Binder,pKd
1,"SGSRPSATVV [HPV73-E6, Q82005]",below the threshold
2,"PVRVCEETSL [OTULIN, Q96BN8]",4.06

# Biological target: T8, MPDZ_5, O75970
# T8 sequence (O75970 695-796, limits assumed, looked up): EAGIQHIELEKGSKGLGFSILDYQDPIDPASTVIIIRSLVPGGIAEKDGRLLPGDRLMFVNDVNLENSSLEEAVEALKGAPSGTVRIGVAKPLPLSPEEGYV
# Experiment: holdup assay
# Design: key: below the threshold = too weak to quantify, mostly under pKd 3.1 to 4
# Details: plain residues with an end cap or a label only (N-terminal biotin on a linker: ttds)
row,Binder,pKd
1,"SGSRPSATVV [HPV73-E6, Q82005]",3.53
2,"PVRVCEETSL [OTULIN, Q96BN8]",below the threshold

# Biological target: NOS1, P29475
# Sequence (P29475 9-101): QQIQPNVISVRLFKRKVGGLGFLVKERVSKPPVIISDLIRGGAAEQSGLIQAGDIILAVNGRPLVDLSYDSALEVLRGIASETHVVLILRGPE
# Experiment: holdup assay
# Design: key: below the threshold = too weak to quantify, mostly under pKd 3.1 to 4
# Details: plain residues with an end cap or a label only (N-terminal biotin on a linker: ttds)
row,Binder,pKd
1,"SGSRPSATVV [HPV73-E6, Q82005]",3.8
2,"PVRVCEETSL [OTULIN, Q96BN8]",3.79

# Biological target: T9, PDZD7_3, Q9H5P4
# T9 sequence (Q9H5P4 857-944, limits assumed, looked up): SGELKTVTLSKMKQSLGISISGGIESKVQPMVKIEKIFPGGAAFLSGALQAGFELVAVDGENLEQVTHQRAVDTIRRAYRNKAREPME
# Experiment: holdup assay
# Design: key: below the threshold = too weak to quantify, mostly under pKd 3.1 to 4
# Details: plain residues with an end cap or a label only (N-terminal biotin on a linker: ttds)
row,Binder,pKd
1,"SGSRPSATVV [HPV73-E6, Q82005]",4.7
2,"PVRVCEETSL [OTULIN, Q96BN8]",4.41

# Biological target: SCRIB_2, Q14160
# Sequence (Q14160 857-960): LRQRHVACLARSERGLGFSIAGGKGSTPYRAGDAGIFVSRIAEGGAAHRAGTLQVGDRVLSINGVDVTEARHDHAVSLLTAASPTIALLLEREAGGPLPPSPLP
# Experiment: holdup assay
# Design: key: below the threshold = too weak to quantify, mostly under pKd 3.1 to 4
# Details: plain residues with an end cap or a label only (N-terminal biotin on a linker: ttds)
row,Binder,pKd
1,"SGSRPSATVV [HPV73-E6, Q82005]",3.56
2,"PVRVCEETSL [OTULIN, Q96BN8]",4.7

# Biological target: T10, SHANK1, Q9Y566
# T10 sequence (Q9Y566 658-767, limits assumed, looked up): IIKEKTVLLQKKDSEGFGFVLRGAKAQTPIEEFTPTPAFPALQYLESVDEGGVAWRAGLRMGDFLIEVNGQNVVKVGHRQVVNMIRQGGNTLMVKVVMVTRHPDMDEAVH
# Experiment: holdup assay
# Design: key: below the threshold = too weak to quantify, mostly under pKd 3.1 to 4
# Details: plain residues with an end cap or a label only (N-terminal biotin on a linker: ttds)
row,Binder,pKd
1,"SGSRPSATVV [HPV73-E6, Q82005]",below the threshold
2,"PVRVCEETSL [OTULIN, Q96BN8]",5.14

# Biological target: T11, SNTB1, Q13884
# T11 sequence (Q13884 107-205, limits assumed, looked up): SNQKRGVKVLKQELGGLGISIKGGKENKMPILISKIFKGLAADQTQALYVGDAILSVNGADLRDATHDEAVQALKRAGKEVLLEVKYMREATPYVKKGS
# Experiment: holdup assay
# Design: key: below the threshold = too weak to quantify, mostly under pKd 3.1 to 4
# Details: plain residues with an end cap or a label only (N-terminal biotin on a linker: ttds)
row,Binder,pKd
1,"SGSRPSATVV [HPV73-E6, Q82005]",below the threshold
2,"PVRVCEETSL [OTULIN, Q96BN8]",4.61
